Assay results taken from the Human Domainome abundance scans (Beltran et al. 2025).
± gives the uncertainty stated by the source.

B1: Far upstream element-binding protein 1, residues 98 to 169; numbered along this chain, Q96AE4 (parent)
chain: RSVMTEEYKVPDGMVGFIIGRGGEQISRIQQESGCKIQIAPDSGGLPERSCMLTGTPESVQSAKRLLDQIVE

Variants of: B1
Test: abundance fitness (aPCA) (normalised: wild type 0, dead -1); higher = more abundant; growth selection in yeast, the domain comes from the species named
Conditions: Homo sapiens

Variant | abundance fitness
RSVMTEEYKVPDGMVGFIIGRGGCQISRIQQESGCKIQIAPDSGGLPERSCMLTGTPESVQSAKRLLDQIVE [E24C] | -0.082 ± 0.042
RSVMTEEYKVPDGMVGFIIGRGGSQISRIQQESGCKIQIAPDSGGLPERSCMLTGTPESVQSAKRLLDQIVE [E24S] | -0.026 ± 0.029
RSVMTEEYKVPDGMVGFIIGRGGEQISRIQQMSGCKIQIAPDSGGLPERSCMLTGTPESVQSAKRLLDQIVE [E32M] | -0.067 ± 0.038
RSVMTEEYKVPDGMVGFIIGRGGEQISRIQQNSGCKIQIAPDSGGLPERSCMLTGTPESVQSAKRLLDQIVE [E32N] | -0.12 ± 0.062
RSVMTEEYKVPDGMVGFIIGRGGEQISRIQQESGCKIQIAPDSGGLPERSCMLTGTPESVQSAKRLLDQGVE [I70G] | -0.11 ± 0.025
RSVMTEEYKVPDGMVGFIIGRGGEQISRIQQESGCKIQIAPDSGGLLERSCMLTGTPESVQSAKRLLDQIVE [P47L] | -0.02 ± 0.03
RSVMTEEYKVPDGMVGFIIGRGGEQISRIQQESGCKIQIAPDSGGLPERSCMLEGTPESVQSAKRLLDQIVE [T54E] | -0.028 ± 0.033
RSVMTEEYKVPDGMVGFIIGRGGEQISRIQQESGCKIQIAQDSGGLPERSCMLTGTPESVQSAKRLLDQIVE [P41Q] | -0.031 ± 0.035
RSVMTEEYKVPDGMVGFIIGRGGEQISRIQQESGCKIQIARDSGGLPERSCMLTGTPESVQSAKRLLDQIVE [P41R] | -0.031 ± 0.023
RSVMTEEYKVPDGMVGFIIGRGGEQISRIQQESGCKIQIAPDSGGLPERSCMLTGTPESVQSAKRHLDQIVE [L66H] | -0.05 ± 0.039
RSVMTEEYKVPDGMVGFIIGRGGEQISRIQQESGCKIQIAPDSGGLPERSCMLTGTPESVQSAKRFLDQIVE [L66F] | -0.087 ± 0.04
RSVMTEEYKVPDGMVGFIIGRGGEQISRIQQESGCKIQIAPDSGGLPERSCMLTGTPESVQSAKRLLDQIWE [V71W] | -0.094 ± 0.032
RSVMTEEYCVPDGMVGFIIGRGGEQISRIQQESGCKIQIAPDSGGLPERSCMLTGTPESVQSAKRLLDQIVE [K9C] | -0.1 ± 0.031
RSVMTEEYNVPDGMVGFIIGRGGEQISRIQQESGCKIQIAPDSGGLPERSCMLTGTPESVQSAKRLLDQIVE [K9N] | -0.156 ± 0.043
RSVMTEEYKVPDGMVGFIISRGGEQISRIQQESGCKIQIAPDSGGLPERSCMLTGTPESVQSAKRLLDQIVE [G20S] | -0.078 ± 0.027
RSVMTEEYKVPDGMVGFILGRGGEQISRIQQESGCKIQIAPDSGGLPERSCMLTGTPESVQSAKRLLDQIVE [I19L] | -0.006 ± 0.027
RSVMTEEYKVPDGMVGFIIGRGGEQISRIQQESGCKIQIAPDSGGEPERSCMLTGTPESVQSAKRLLDQIVE [L46E] | 0.016 ± 0.034
RSVMTEEYKVPDGMVGFIIGRGGEQISRIQQESGCKMQIAPDSGGLPERSCMLTGTPESVQSAKRLLDQIVE [I37M] | -0.081 ± 0.039
RSVMTEEYKVPDGMVGFIIGRWGEQISRIQQESGCKIQIAPDSGGLPERSCMLTGTPESVQSAKRLLDQIVE [G22W] | -0.15 ± 0.032
RSVMTEEYKVPDGMVGFIIGRGGEQISRIQQESGCKIQIAPDSGGLPERSCSLTGTPESVQSAKRLLDQIVE [M52S] | 0.001 ± 0.029
RSVMTEEYKVPDGMVGFIIGRGGEQISRIQQESGCKIQIAPDSGGLPERSCRLTGTPESVQSAKRLLDQIVE [M52R] | -0.017 ± 0.024
RSVMTEEYKVPDGMVGFIIGRGGEQISRIQQESGCKIQIAPDSGGLPERSCQLTGTPESVQSAKRLLDQIVE [M52Q] | -0.032 ± 0.039
RSVMTEEYKVPDGMVGFIIGRGGEQISRIQQESGCKIQIAPDSGGLPERSCYLTGTPESVQSAKRLLDQIVE [M52Y] | -0.012 ± 0.053
RSVMTEEYKVPDGMVGFIIGRGGEQISRIQQESGCKIQIAPDSGGLPERSCMLTGTPPSVQSAKRLLDQIVE [E58P] | -0.065 ± 0.034
RSVMTEEIKVPDGMVGFIIGRGGEQISRIQQESGCKIQIAPDSGGLPERSCMLTGTPESVQSAKRLLDQIVE [Y8I] | -0.035 ± 0.044

Variant | abundance fitness
RSVMTEELKVPDGMVGFIIGRGGEQISRIQQESGCKIQIAPDSGGLPERSCMLTGTPESVQSAKRLLDQIVE [Y8L] | -0.059 ± 0.03
RSVMTEEYKVPDGMVGFIIGRGGEQISRIQQESGCKIQIAPDSGGLPERSCMFTGTPESVQSAKRLLDQIVE [L53F] | -0.349 ± 0.05
RSVMTEEYKVHDGMVGFIIGRGGEQISRIQQESGCKIQIAPDSGGLPERSCMLTGTPESVQSAKRLLDQIVE [P11H] | -0.162 ± 0.041
RSVMTEEYKVPDGMVGFIIGRGGEQISRIQQESMCKIQIAPDSGGLPERSCMLTGTPESVQSAKRLLDQIVE [G34M] | -0.117 ± 0.04
RSVMTEEYKVPDGMVGFIIGRGGEQISRIQQEIGCKIQIAPDSGGLPERSCMLTGTPESVQSAKRLLDQIVE [S33I] | -0.313 ± 0.054
RSVMTEEYKVPDGMVGFIIGRGGEQISRIQQESGCKIQIAPDSGGLPERSCMLTGTPESVQSEKRLLDQIVE [A63E] | -0.815 ± 0.047
RSVMTEEYKVPDGMVGFIIGRGGEQISRIQQESGCKIQIAPDSGGLPERSCMLTGTPESVQSSKRLLDQIVE [A63S] | -0.261 ± 0.029
RSVMTEEYKVPDGMVGFIIGRGGEQISRIQQESGCKIQIAPDSGGLPERSCMLTGGPESVQSAKRLLDQIVE [T56G] | -0.091 ± 0.024
RSVMTEEYKVPDGMVGFWIGRGGEQISRIQQESGCKIQIAPDSGGLPERSCMLTGTPESVQSAKRLLDQIVE [I18W] | -0.108 ± 0.029
RSVMTEEYKVPDGMVGFVIGRGGEQISRIQQESGCKIQIAPDSGGLPERSCMLTGTPESVQSAKRLLDQIVE [I18V] | -0.031 ± 0.025
RSVMTEEYKVPDGMVGFFIGRGGEQISRIQQESGCKIQIAPDSGGLPERSCMLTGTPESVQSAKRLLDQIVE [I18F] | -0.036 ± 0.054
NSVMTEEYKVPDGMVGFIIGRGGEQISRIQQESGCKIQIAPDSGGLPERSCMLTGTPESVQSAKRLLDQIVE [R1N] | 0.043 ± 0.034
HSVMTEEYKVPDGMVGFIIGRGGEQISRIQQESGCKIQIAPDSGGLPERSCMLTGTPESVQSAKRLLDQIVE [R1H] | -0.219 ± 0.065
RSVMTEEYKVPDGMVGFIIGRGGEQISRIQQESGCKIQIAPDSGGLPERSCMLTGTPESVDSAKRLLDQIVE [Q61D] | 0.003 ± 0.04
RSVMTEEYKVPDGMVGFIIGRGGEQIWRIQQESGCKIQIAPDSGGLPERSCMLTGTPESVQSAKRLLDQIVE [S27W] | -0.057 ± 0.031
RSVMTEEYKVPDGMVGFIIGRGGEQISRIQQESGCKIQIAPDSGGLPERSCMLTGTPEWVQSAKRLLDQIVE [S59W] | -0.754 ± 0.042
RSVMTEEYKVPDGMVGFIIGRGGEQISRIQQESGCKIQIAPDSGGLPERSCMLTGTPETVQSAKRLLDQIVE [S59T] | -0.058 ± 0.033
RSVMTEEYKVPDGMVGFIIGRGGEQISRIQQESGCKIQIAPDSGGLPERSCMLTGTPEDVQSAKRLLDQIVE [S59D] | -0.053 ± 0.036
RSVMTEEYKVPEGMVGFIIGRGGEQISRIQQESGCKIQIAPDSGGLPERSCMLTGTPESVQSAKRLLDQIVE [D12E] | 0.001 ± 0.03
RSVMTEEYKVPWGMVGFIIGRGGEQISRIQQESGCKIQIAPDSGGLPERSCMLTGTPESVQSAKRLLDQIVE [D12W] | -0.164 ± 0.032
RSVMTEEYKVPDGMVGFIIGRGGEQISRIQQESGCKIQIAPDSGGLPERSCMLTGTPESVQSAKRLLDQIVH [E72H] | -0.007 ± 0.053
RSVMTEEYKVPDGMVGFIIGRGGEQISRIQQESGCKIQIAPDSGGLPERSCMLTGTPESVQSAKRLHDQIVE [L67H] | -0.592 ± 0.06
RSVMTEEYKVPDGMVGFIIGRGGEQISRIQQESGCKIQIAPDSGGLPERSCMLTGTPESVQSAKRLLQQIVE [D68Q] | -0.058 ± 0.034
RSVMTEEYKVPDGMVGFIIGRGGEQISRIQQESGCKIQIAPDSGGLPERSCMLTGTPESVQSAKRLLSQIVE [D68S] | -0.012 ± 0.026
RSVMTEEYKVPDGMVGFIIGRGGEQISRIQQESGCKIQIAPDSGGLPERSCMLTGTPESVQSAKRLLCQIVE [D68C] | -0.065 ± 0.035

Variant | abundance fitness
RSVMTEEYKVPDGMVGFIIGRGGEQISRIQQESGCKIQIAPDSGGLPERSCMLTGTPESVQTAKRLLDQIVE [S62T] | -0.005 ± 0.029
RSVMTEEYKVPDGMVGFIIGRGGEQISRIQQESGCKIQIAPDSGGLPEFSCMLTGTPESVQSAKRLLDQIVE [R49F] | -0.248 ± 0.049
RSVMTEEYKVPDGMVGFIIGRGGEQISRIQQESGCKIQIAPDSGGLPEKSCMLTGTPESVQSAKRLLDQIVE [R49K] | -0.079 ± 0.037
RSVMTEEYKGPDGMVGFIIGRGGEQISRIQQESGCKIQIAPDSGGLPERSCMLTGTPESVQSAKRLLDQIVE [V10G] | -0.304 ± 0.024
RSVMTEEYKSPDGMVGFIIGRGGEQISRIQQESGCKIQIAPDSGGLPERSCMLTGTPESVQSAKRLLDQIVE [V10S] | -0.382 ± 0.028
RSQMTEEYKVPDGMVGFIIGRGGEQISRIQQESGCKIQIAPDSGGLPERSCMLTGTPESVQSAKRLLDQIVE [V3Q] | -0.004 ± 0.034
RSFMTEEYKVPDGMVGFIIGRGGEQISRIQQESGCKIQIAPDSGGLPERSCMLTGTPESVQSAKRLLDQIVE [V3F] | -0.073 ± 0.049
RSVMTEEYKVPDGMVGFIIGRGGEFISRIQQESGCKIQIAPDSGGLPERSCMLTGTPESVQSAKRLLDQIVE [Q25F] | -0.242 ± 0.054
RSVMTEEYKVPDGMVGFIIGRGGERISRIQQESGCKIQIAPDSGGLPERSCMLTGTPESVQSAKRLLDQIVE [Q25R] | -0.016 ± 0.022
RSVMTEEYKVPDGMVGFIIGRGGEYISRIQQESGCKIQIAPDSGGLPERSCMLTGTPESVQSAKRLLDQIVE [Q25Y] | -0.132 ± 0.046
RSVMVEEYKVPDGMVGFIIGRGGEQISRIQQESGCKIQIAPDSGGLPERSCMLTGTPESVQSAKRLLDQIVE [T5V] | -0.049 ± 0.025
RSVMYEEYKVPDGMVGFIIGRGGEQISRIQQESGCKIQIAPDSGGLPERSCMLTGTPESVQSAKRLLDQIVE [T5Y] | -0.096 ± 0.046
RSVMCEEYKVPDGMVGFIIGRGGEQISRIQQESGCKIQIAPDSGGLPERSCMLTGTPESVQSAKRLLDQIVE [T5C] | -0.072 ± 0.036
RSVMTEEYKVPDGMVGFIIGRGGEQISRIQQESGCKIFIAPDSGGLPERSCMLTGTPESVQSAKRLLDQIVE [Q38F] | -0.031 ± 0.057
RSVMTEEYKVPDGMVGFIIGRGGEQISRIQQESGCKIWIAPDSGGLPERSCMLTGTPESVQSAKRLLDQIVE [Q38W] | -0.049 ± 0.031
RSVMTEEYKVPDAMVGFIIGRGGEQISRIQQESGCKIQIAPDSGGLPERSCMLTGTPESVQSAKRLLDQIVE [G13A] | -0.01 ± 0.026
RSVMTEEYKVPDGMVGFIIGRGGEQISRIQQESGCKIQIAPDSGGLPERSCMLTGTPESVQSARRLLDQIVE [K64R] | -0.015 ± 0.023
RSVMTEEYKVPDGMVGFIIGRGGEQISRIQQESGCKIQIAPDSGHLPERSCMLTGTPESVQSAKRLLDQIVE [G45H] | -0.163 ± 0.063
RSVMTEEYKVPDGMVGFIIGRGGEQISRIQQESGCKIQVAPDSGGLPERSCMLTGTPESVQSAKRLLDQIVE [I39V] | -0.032 ± 0.029
RSVNTEEYKVPDGMVGFIIGRGGEQISRIQQESGCKIQIAPDSGGLPERSCMLTGTPESVQSAKRLLDQIVE [M4N] | -0.027 ± 0.037
RSVDTEEYKVPDGMVGFIIGRGGEQISRIQQESGCKIQIAPDSGGLPERSCMLTGTPESVQSAKRLLDQIVE [M4D] | -0.079 ± 0.036
RSVYTEEYKVPDGMVGFIIGRGGEQISRIQQESGCKIQIAPDSGGLPERSCMLTGTPESVQSAKRLLDQIVE [M4Y] | -0.007 ± 0.041
RSVMTEEYKVPDGMVGFIIGRGGEQISRIQQESGCKIQIAPDSFGLPERSCMLTGTPESVQSAKRLLDQIVE [G44F] | -0.107 ± 0.035
RSVMTEEYKVPDGMVGFIIGRGVEQISRIQQESGCKIQIAPDSGGLPERSCMLTGTPESVQSAKRLLDQIVE [G23V] | -0.157 ± 0.029
RVVMTEEYKVPDGMVGFIIGRGGEQISRIQQESGCKIQIAPDSGGLPERSCMLTGTPESVQSAKRLLDQIVE [S2V] | -0.036 ± 0.029
